# Measured values taken from patent US20040166530A1 (BAYLOR COLLEGE OF MEDICINE, published 2004).
# T1: Myc-tagged Cdc53 (Cdc53^M) (S. cerevisiae, UniProt Q12018 1-815)
# T1 construct: Expressed from baculovirus in insect cells; not shown: N-terminal Myc tag
# T1 sequence (looked up): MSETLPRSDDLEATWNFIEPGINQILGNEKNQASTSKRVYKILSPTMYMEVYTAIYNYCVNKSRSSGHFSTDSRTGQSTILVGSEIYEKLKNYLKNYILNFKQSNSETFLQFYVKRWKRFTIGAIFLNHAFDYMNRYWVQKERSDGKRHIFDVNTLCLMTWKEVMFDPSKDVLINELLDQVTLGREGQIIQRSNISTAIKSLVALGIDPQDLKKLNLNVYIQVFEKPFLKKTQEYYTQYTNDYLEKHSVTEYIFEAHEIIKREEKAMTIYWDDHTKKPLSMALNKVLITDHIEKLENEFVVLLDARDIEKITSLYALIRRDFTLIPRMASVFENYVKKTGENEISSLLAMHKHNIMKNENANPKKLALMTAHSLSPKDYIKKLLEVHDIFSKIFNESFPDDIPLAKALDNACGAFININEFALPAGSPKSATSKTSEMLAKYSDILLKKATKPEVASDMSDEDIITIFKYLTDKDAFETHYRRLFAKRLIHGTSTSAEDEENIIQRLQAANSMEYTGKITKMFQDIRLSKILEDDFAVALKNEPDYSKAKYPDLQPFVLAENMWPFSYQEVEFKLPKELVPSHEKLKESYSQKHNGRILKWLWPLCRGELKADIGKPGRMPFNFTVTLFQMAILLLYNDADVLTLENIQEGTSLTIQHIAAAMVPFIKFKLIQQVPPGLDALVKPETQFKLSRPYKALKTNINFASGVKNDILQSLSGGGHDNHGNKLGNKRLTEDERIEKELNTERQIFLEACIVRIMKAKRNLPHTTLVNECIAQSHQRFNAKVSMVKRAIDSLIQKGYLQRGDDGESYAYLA
# B1: phosphorylated Sic1 (other, S. cerevisiae, UniProt P38634 1-284, looked up)
# chain: MTPSTPPRSRGTRYLAQPSGNTSSSALMQGQKTPQKPSQNLVPVTPSTTKSFKNAPLLAPPNSNMGMTSPFNGLTSPQRSPFPKSSVKRTLFQFESHDNGTVREEQEPLGRVNRILFPTQQNVDIDAAEEEEEGEVLLPPSRPTSARQLHLSLERDEFDQTHRKKIIKDVPGTPSDKVITFELAKNWNNNSPKNDARSQESEDEEDIIINPVRVGKNPFASDELVTQEIRNERKRAMLRENPDIEDVITYVNKKGEVVEKRRLTDEEKRRFKPKALFQSRDQEH
# modifications: phosphorylated in vitro by Gst-Cdc28HA/Cln1HA/Cks1 with ATP; sites not stated
# notes: also called Cln1/Cdc28-phosphorylated Sic1; phosphorylated Sic1 complexes
# B2: phosphorylated Cln1HA (protein, S. cerevisiae, UniProt P20437 1-546, looked up, not shown: small tags and cut ends)
# chain: MNHSEVKTGLIVTAKQTYYPIELSNAELLTHYETIQEYHEEISQNVLVQSSKTKPDIKLIDQQPEMNPHQTREAIVTFLYQLSVMTRVSNGIFFHAVRFYDRYCSKRVVLKDQAKLVVGTCLWLAAKTWGGCNHIINNVSIPTGGRFYGPNPRARIPRLSELVHYCGGSDLFDESMFIQMERHILDTLNWDVYEPMINDYILNVDENCLIQYELYKNQLQNNNSNGKEWSCKRKSQSSDDSDATVEEHISSSPQSTGLDGDTTTMDEDEELNSKIKLINLKRFLIDLSCWQYNLLKFELYEICNGMFSIINKFTNQDQGPFLSMPIGNDINSNTQTQVFSIIINGIVNSPPSLVEVYKEQYGIVPFILQVKDYNLELQKKLQLASTIDLTRKIAVNSRYFDQNASSSSVSSPSTYSSGTNYTPMRNFSAQSDNSVFSTTNIDHSSPITPHMYTFNQFKNESACDSAISVSSLPNQTQNGNMPLSSNYQNMMLEERNKENRIPNSSSAEIPQRAKFMTTGIFQNTGELTNRASSISLSLRNHNSSQL
# modifications: autophosphorylated in Cln1/Cdc28 complexes with ATP; sites not stated
# B3: Cdc4 (other, S. cerevisiae, UniProt P07834 1-779, looked up)
# chain: MGSFPLAEFPLRDIPVPYSYRVSGGIASSGSVTALVTAAGTHRNSSTAKTVETEDGEEDIDEYQRKRAAGSGESTPERSDFKRVKHDNHKTLHPVNLQNTGAASVDNDGLHNLTDISNDAEKLLMSVDDGSAAPSTLSVNMGVASHNVAAPTTVNAATITGSDVSNNVNSATINNPMEEGALPLSPTASSPGTTTPLAKTTKTINNNNNIADLIESKDSIISPEYLSDEIFSAINNNLPHAYFKNLLFRLVANMDRSELSDLGTLIKDNLKRDLITSLPFEISLKIFNYLQFEDIINSLGVSQNWNKIIRKSTSLWKKLLISENFVSPKGFNSLNLKLSQKYPKLSQQDRLRLSFLENIFILKNWYNPKFVPQRTTLRGHMTSVITCLQFEDNYVITGADDKMIRVYDSINKKFLLQLSGHDGGVWALKYAHGGILVSGSTDRTVRVWDIKKGCCTHVFKGHNSTVRCLDIVEYKNIKYIVTGSRDNTLHVWKLPKESSVPDHGEEHDYPLVFHTPEENPYFVGVLRGHMASVRTVSGHGNIVVSGSYDNTLIVWDVAQMKCLYILSGHTDRIYSTIYDHERKRCISASMDTTIRIWDLENIWNNGECSYATNSASPCAKILGAMYTLQGHTALVGLLRLSDKFLVSAAADGSIRGWDANDYSRKFSYHHTNLSAITTFYVSDNILVSGSENQFNIYNLRSGKLVHANILKDADQIWSVNFKGKTLVAAVEKDGQSFLEILDFSKASKINYVSNPVNSSSSSLESISTSLGLTRTTIIP
# notes: Untagged, expressed from baculovirus in insect cells
# B4: phosphorylated Cln2HA (protein, S. cerevisiae, UniProt P20438 1-545, looked up, not shown: small tags and cut ends)
# chain: MASAEPRPRMGLVINAKPDYYPIELSNAELLSHFEMLQEYHQEISTNVIAQSCKFKPNPKLIDQQPEMNPVETRSNIITFLFELSVVTRVTNGIFFHSVRLYDRYCSKRIVLRDQAKLVVATCLWLAAKTWGGCNHIINNVVIPTGGRFYGPNPRARIPRLSELVHYCGDGQVFDESMFLQMERHILDTLNWNIYEPMINDYVLNVDENCLMQYELYENQVTYDKQCSEKRQSQLSQDSDATVDERPYQNEEEEEEDLKLKIKLINLKKFLIDVSAWQYDLLRYELFEVSHGIFSIINQFTNQDHGPFLMTPMTSESKNGEILSTLMNGIVSIPNSLMEVYKTVNGVLPFINQVKEYHLDLQRKLQIASNLNISRKLTISTPSCSFENSNSTSIPSPASSSQSHTPMRNMSSLSDNSVFSRNMEQSSPITPSMYQFGQQQSNSICGSTVSVNSLVNTNNKQRIYEQITGPNSNNATNDYIDLLNLNESNKENQNPATAHYLNGGPPKTSFINHGMFPSPTGTINSGKSSSASSLISFGMGNTQVI
# modifications: autophosphorylated in Cln2/Cdc28 complexes with ATP; sites not stated
# B5: Cdc34 (enzyme, S. cerevisiae, UniProt P14682 1-295, looked up)
# chain: MSSRKSTASSLLLRQYRELTDPKKAIPSFHIELEDDSNIFTWNIGVMVLNEDSIYHGGFFKAQMRFPEDFPFSPPQFRFTPAIYHPNVYRDGRLCISILHQSGDPMTDEPDAETWSPVQTVESVLISIVSLLEDPNINSPANVDAAVDYRKNPEQYKQRVKMEVERSKQDIPKGFIMPTSESAYISQSKLDEPESNKDMADNFWYDSDLDDDENGSVILQDDDYDDGNNHIPFEDDDVYNYNDNDDDDERIEFEDDDDDDDDSIDNDSVMDRKQPHKAEDESEDVEDVERVSKKI
# notes: Untagged baculovirus form in the assembly experiments; also called E2 Cdc34
# Assays:
# [1] = molecular target: phosphorylated IκB peptide (residues 21-41, phosphorylated on Ser-32 and Ser-36); experiment: HeLa lysate on IκB peptide beads, anti-Skp1 immunoblot (FIG. 8)
# phosphorylated IκB peptide (residues 21-41, phosphorylated on Ser-32 and Ser-36), sequence (peptide, as listed by the source): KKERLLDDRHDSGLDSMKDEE
# [2] = molecular target: Flag-Cdc4 (Cdc4^F) (S. cerevisiae) (UniProt P07834); experiment: binding reaction with anti-Flag (Cdc4^F) immune complexes with increasing Skp1, immunoblot (FIG. 2D)
# [3] = molecular target: T2, Grr1/Skp1^F/Cdc53 complex (S. cerevisiae, UniProt P24814 1-1151; P52286 1-194; Q12018 1-815); experiment: binding of 32P-labeled Sic1 complexes to anti-Skp1^F immune complexes, autoradiography (FIG. 4B)
# T2 construct: also called Cdc53/Skp1/Grr1 complex; Grr1/Skp1/Cdc53 complex; not shown: N-terminal His6-G10 (T7 gene 10) tag; N-terminal Flag tag; N-terminal Myc tag
# T2 sequence (P24814 whole entry, chain 1 of 2): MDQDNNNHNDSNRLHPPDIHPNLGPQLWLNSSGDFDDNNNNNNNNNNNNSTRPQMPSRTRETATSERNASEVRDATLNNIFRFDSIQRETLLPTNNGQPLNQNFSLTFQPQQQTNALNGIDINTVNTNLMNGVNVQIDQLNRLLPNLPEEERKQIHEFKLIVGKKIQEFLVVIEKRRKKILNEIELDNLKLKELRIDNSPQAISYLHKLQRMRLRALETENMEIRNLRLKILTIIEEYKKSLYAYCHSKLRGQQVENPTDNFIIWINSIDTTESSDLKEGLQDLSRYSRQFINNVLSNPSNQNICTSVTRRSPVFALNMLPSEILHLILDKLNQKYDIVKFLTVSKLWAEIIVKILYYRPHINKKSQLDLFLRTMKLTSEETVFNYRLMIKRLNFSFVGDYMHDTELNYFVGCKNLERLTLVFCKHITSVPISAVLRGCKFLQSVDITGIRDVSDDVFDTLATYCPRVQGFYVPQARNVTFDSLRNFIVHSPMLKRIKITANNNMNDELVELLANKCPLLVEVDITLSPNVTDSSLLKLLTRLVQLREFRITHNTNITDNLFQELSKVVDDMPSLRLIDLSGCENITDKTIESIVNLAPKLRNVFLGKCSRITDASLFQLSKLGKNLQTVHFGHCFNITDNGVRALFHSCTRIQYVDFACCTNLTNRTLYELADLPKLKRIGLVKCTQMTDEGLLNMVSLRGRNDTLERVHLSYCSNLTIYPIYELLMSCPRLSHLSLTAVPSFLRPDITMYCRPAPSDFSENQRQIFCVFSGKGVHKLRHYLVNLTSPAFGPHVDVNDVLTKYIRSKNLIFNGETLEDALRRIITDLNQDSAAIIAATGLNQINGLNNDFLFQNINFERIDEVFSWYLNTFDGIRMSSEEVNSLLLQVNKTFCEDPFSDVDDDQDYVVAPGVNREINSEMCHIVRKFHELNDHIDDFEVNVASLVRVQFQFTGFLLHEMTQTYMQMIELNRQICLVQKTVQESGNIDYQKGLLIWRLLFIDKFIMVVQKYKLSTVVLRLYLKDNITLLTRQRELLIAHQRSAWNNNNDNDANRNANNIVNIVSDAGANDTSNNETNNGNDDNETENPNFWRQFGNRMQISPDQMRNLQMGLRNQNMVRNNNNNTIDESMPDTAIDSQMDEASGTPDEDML
# T2 sequence (P52286 whole entry, chain 2 of 2): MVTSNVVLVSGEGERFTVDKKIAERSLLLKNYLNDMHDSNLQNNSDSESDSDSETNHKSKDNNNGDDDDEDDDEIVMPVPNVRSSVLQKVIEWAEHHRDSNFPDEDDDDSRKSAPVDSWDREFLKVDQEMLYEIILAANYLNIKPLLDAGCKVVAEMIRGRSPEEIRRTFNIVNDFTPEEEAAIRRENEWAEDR
# Protocol: These experiments were conducted as described above, with the exception being that Grr1 was substituted for Cdc4 (approximately 100 ng). Proteins were separated by SDS-PAGE, and blotted with anti-Skp1 anti-Myc to detect Grr1G10 and Cdc53^M, with anti-Skp1 antibodies.
# In this Figure, lanes 2-5 contain anti-Skp1^F immune complexes derived from insect cells infected with the indicated baculovirus combinations were used for binding reactions with ³²P-labeled Sic1 complexes. Ten percent of the input Sic1 complex (lane 1) was included as a control. The presence of Cdc4, Skp1, Cdc53, and Grr1 was verified by immunoblotting.
# [4] = molecular target: T2, Grr1/Skp1^F/Cdc53 complex; experiment: binding of 32P-labeled Cln kinase complexes to anti-Skp1^F immune complexes, autoradiography (FIG. 5A)
# [5] = molecular target: Cdc4/Skp1^F complex (S. cerevisiae) (UniProt P52286); experiment: as above
# Cdc4/Skp1^F complex (S. cerevisiae), sequence (P52286 whole entry, one chain of several): as the sequence (P52286 whole entry, chain 2 of 2) above
# [6] = molecular target: T1, Myc-tagged Cdc53 (Cdc53^M); experiment: anti-Cdc53^M immune complexes from insect cells, immunoblot (FIG. 2C)
# Protocol: To examine the assembly of recombinant yeast proteins, 0.4 ml lysate were typically derived from 2×10⁶ cells. […] Immunopurification was performed by incubating the lysates at 4° C. for 2 hours with 4 μg of the anti-Myc or anti-G10 antibody and 8 μl of Protein A-Sepharose, or with 8 μl of immobilized anti-Flag antibodies (Kodak; See, Example 1). Immune complexes were washed three times with 1 ml of lysis butter prior to SDS-PAGE.
# Associated proteins were then washed three times with 1 ml of lysis buffer prior to SDS-PAGE and immunoblotting, were performed as described above.
# As shown in this Figure, phosphorylated Sic1 efficiently associates with Cdc53/Skp1/Cdc4 complexes, and this association is dependent upon the presence of Skp1 (See, FIG. 2C, lanes 6 and 8). Typically, 10-20% of the input phosphorylated Sic1 was bound at about 20 nM Sic1. […] Consistent with the results in FIG. 1, the level of Cdc4 found in immune complexes lacking Skp1 were >10-fold lower than that found in the presence of Skp1.
# [7] = molecular target: T1, Myc-tagged Cdc53 (Cdc53^M); experiment: anti-Myc immunoprecipitation from co-infected insect cells, immunoblot (FIG. 1A)
# Description: Insect cells were co-infected with various combinations of baculoviruses expressing Myc-tagged Cdc53 (Cdc53^M), Cdc34, Cdc4, and Skp1. Anti-Myc immune complexes from lysates of these infected cells were immunoblotted to identify associated proteins (See, FIG. 1A). […] Thus, one function of Skp1 is to facilitate association of Cdc53 with Cdc4. […] Furthermore, it appeared that Cdc53 can simultaneously associate with both Cdc34 and Skp1, as the association of Gst-Skp1 with Cdc34 is enhanced in the presence of Cdc53^M (See, FIG. 1C).
# For recombinant protein expression and assembly of complexes, 4×10⁵ insect cells (Hi5, Invitrogen) were infected with the indicated virus combinations for 40 hours. These combinations included baculoviruses expressing Myc-tagged Cdc53 (Cdc53^M), Cdc34, Cdc4, and Skp1. Cells were then harvested and disrupted in lysis buffer (50 mM Tris-HCl (pH 7.5), 150 mM NaCl, 0.5% Nonidet P40, 10 mM NaF, 10 mM β-glycerol phosphate, 1 mM PMSF, and 5 μg/ml each leupeptin, antipain, and aprotinin). For isolation of protein complexes, typically about 3 ml of lysis buffer was used per 0.5×10⁸ cells.
# To examine the assembly of recombinant yeast proteins, 0.4 ml lysate were typically derived from 2×10⁶ cells. […]
molecule,measurement,setting,value
Skp1 (in HeLa cell lysates) (from UniProt P63208 2-163),percent of the Skp1 in the extracts that can associate with IκB,[1],1%
B1,fold stimulation by Skp1 of the association of Sic1 with Cdc4,[2],5 fold
same,binding result,[3],no binding
B2,percent of the input associated (% of the input),[4],40
same,percent of the input associated (% of the input),[5],6
B3,fold lower level of Cdc4 in immune complexes lacking Skp1 than in the presence of Skp1,[6],> 10 fold
B4,percent of the input associated (% of the input),[4],40
same,percent of the input associated (% of the input),[5],6
B5,binding result,[7],binds
